B1: Aleuria aurantia lectin (protein)
chain: PTEFLYTSKIAAISWAATGGRQQRVYFQDLNGKIREAQRGGDNPWTGGSSQNVIGEAKLFSPLAAVTWKSAQGIQIRVYCVNKDNILSEFVYDGSKWITGQLGSVGVKVGSNSKLAALQWGGSESAPPNIRVYYQKSNGSGSSIHEYVWSGKWTAGASFGSTVPGTGIGATAIGPGRLRIYYQATDNKIREHCWDSNSWYVGGFSASASAGVSIAAISWGSTPNIRVYWQKGREELYEAAYGGSWNTPGQIKDASRPTPSLPDTFIAANSSGNIDISVFFQASGVSLQQWQWISGKGWSIGAVVPTGTPAGW
B2: Lens culinaris agglutinin (protein)
chain 1: TETTSFSITKFSPDQKNLIFQGDGYTTKGKLTLTKAVKSTVGRALYSTPIHIWDRDTGNVANFVTSFTFVIDAPSSYNVADEFTFFIAPVDTKPQTGGGYLGVFNSKEYDKTSQTVAVEFDTFYNAAWDPSNKERHIGIDVNSIKSVNTKSWNLQNGERANVVIAFNAATNVLTVTLTYP
chain 2: VTSYTLNEVVPLKDVVPEWVRIGFSATTGAEFAAHEVHSWSFHSELGGTSSS

Columns and labels:
Test in all cases: detection of glycoproteins by ELISA with biotin-labeled lectin
Type in all cases: binding
Thyroglobulin (pig) = Thyroglobulin (pig) (Sus scrofa, UniProt F1RRV3); conditions: (1) Thyroglobulin (pig), N-linked glycan having α1→6 L-fucose; thyroglobulin value = 100%
Thyroglobulin (pig), sequence (F1RRV3 20-2692): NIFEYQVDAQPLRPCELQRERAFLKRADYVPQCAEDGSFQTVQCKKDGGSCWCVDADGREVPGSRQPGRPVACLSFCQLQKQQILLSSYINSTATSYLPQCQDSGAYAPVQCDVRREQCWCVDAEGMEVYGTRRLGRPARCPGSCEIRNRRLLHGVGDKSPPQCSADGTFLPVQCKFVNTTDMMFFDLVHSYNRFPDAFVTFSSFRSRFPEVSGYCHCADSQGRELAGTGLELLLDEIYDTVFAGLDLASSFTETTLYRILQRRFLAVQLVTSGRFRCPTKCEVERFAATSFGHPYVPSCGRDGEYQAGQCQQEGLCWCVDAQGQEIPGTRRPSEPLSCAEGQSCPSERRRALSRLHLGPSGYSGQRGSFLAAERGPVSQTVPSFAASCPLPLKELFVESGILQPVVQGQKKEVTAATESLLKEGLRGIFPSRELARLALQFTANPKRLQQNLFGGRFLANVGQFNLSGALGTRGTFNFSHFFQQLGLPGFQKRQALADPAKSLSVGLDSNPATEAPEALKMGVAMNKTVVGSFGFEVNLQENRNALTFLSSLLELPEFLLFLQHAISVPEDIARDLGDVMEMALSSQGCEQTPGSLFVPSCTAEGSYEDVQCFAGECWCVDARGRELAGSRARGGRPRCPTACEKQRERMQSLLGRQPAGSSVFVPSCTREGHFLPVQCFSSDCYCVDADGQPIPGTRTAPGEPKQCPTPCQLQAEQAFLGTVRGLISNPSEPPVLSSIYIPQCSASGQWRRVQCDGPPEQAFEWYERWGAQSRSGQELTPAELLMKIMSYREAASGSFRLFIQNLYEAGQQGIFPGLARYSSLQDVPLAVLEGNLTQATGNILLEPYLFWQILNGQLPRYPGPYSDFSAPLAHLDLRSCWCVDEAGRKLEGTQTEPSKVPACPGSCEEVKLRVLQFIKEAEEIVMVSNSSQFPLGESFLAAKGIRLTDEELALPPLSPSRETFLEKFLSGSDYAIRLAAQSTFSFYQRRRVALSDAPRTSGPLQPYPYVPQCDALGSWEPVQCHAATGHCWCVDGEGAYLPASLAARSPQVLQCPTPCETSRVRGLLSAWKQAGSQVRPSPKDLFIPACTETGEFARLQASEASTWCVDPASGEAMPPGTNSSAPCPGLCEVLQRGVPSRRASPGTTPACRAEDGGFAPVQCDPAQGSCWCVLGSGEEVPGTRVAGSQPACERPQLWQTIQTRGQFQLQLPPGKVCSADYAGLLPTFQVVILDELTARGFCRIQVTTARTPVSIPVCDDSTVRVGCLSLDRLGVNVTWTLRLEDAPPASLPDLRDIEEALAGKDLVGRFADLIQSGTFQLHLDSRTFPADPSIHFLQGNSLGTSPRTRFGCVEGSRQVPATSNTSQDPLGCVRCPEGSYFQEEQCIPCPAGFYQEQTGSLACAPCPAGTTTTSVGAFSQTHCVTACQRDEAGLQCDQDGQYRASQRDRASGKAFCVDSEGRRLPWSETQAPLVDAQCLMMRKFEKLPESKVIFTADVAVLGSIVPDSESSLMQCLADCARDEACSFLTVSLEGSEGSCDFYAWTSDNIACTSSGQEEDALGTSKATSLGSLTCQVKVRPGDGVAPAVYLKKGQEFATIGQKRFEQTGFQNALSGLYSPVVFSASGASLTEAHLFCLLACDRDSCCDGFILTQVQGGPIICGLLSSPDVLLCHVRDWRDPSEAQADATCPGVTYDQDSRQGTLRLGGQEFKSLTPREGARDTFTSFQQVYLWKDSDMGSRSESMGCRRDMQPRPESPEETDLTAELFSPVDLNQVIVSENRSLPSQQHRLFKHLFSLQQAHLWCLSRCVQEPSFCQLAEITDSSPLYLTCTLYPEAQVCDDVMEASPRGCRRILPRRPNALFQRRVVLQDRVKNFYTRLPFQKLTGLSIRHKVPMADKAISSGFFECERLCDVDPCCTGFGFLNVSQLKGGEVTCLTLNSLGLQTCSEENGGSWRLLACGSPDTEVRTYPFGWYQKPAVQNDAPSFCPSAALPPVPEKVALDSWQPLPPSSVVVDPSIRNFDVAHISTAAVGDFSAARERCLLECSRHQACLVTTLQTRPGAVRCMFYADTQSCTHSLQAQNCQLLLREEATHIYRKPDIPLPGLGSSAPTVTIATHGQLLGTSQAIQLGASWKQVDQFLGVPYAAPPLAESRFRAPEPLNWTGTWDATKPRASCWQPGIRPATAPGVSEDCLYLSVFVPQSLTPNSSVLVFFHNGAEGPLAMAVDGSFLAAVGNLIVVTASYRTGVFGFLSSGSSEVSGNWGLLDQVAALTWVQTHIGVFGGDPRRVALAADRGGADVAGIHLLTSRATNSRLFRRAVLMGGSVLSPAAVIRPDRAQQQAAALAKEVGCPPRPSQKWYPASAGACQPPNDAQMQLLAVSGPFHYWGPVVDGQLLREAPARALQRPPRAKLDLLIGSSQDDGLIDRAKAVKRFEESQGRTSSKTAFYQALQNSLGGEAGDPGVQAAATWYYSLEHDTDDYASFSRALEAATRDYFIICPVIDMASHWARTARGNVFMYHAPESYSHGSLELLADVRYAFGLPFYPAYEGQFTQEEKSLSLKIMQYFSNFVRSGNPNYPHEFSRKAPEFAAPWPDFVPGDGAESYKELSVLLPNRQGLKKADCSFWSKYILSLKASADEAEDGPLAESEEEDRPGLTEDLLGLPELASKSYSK
Method: (§1) PTL of Example 1, SRL of Example 2, AAL of Comparison Example 1, AOL of Comparison Example 2, and LCA of Comparison Example 3 that were biotin-labeled were used to the detection of glycoproteins by the enzyme-linked immunosorbent assay (ELISA).
(§2) The glycoprotein and albumin as protein not including a sugar chain as a control were dissolved in 0.1 M carbonic acid buffer solution (pH 9.5) at 1 mg/ml. Then, the resultant solution was added to a microtiter plate (Nunc 439454) and was incubated at 4 degrees C. overnight. Then, the resultant solution was cleaned by 0.05% Tween/PBS three times. Thereafter, 1% BSA/PBS was added to wells and the solution was incubated at 37 degrees C. for one hour. Then, after the solution was cleaned by 0.05% Tween/PBS three times, biotin labeled-lectin appropriately diluted by 1% BSA/0.05% Tween/PBS was added to the wells and the solution was incubated at 37 degrees C. for one hour. After the solution was cleaned by 0.05% Tween/PBS three times, HRP labeled streptavidin solution diluted by 1% BSA/0.05% Tween/PBS was added to wells and the solution was incubated at 37 degrees C. for 30 minutes. After the solution was cleaned by 0.05% Tween/PBS three times, TMB Peroxidase substrate system (KPL) was added and the resultant solution was incubated at a room temperature for 10 minutes while light was being blocked.
(§3) The reaction was stopped by 1 M phosphoric acid. Then, a microplate reader (MPR-A4i, TOSOH CORPORATION) was used to measure the absorbance at 450 nm. Based on this value, reaction value ([absorbance at 450 nm of a well for which glycoprotein was solid-phased to the plate and reacted]−[absorbance at 450 nm of a well for which glycoprotein was not solid-phased to the plate and reacted] was calculated. Next, for each lectin, the interaction strength (relative value) to each glycoprotein was calculated based on an assumption that the glycoprotein (thyroglobulin) value was 100%. The calculation result is shown in Table 9 and FIG. 19 to FIG. 23.

Lactoferrin (human) = Lactoferrin (human) (Homo sapiens, UniProt P02788); conditions: (2) Lactoferrin (human), N-linked glycan chain having α1→6 L-fucose; thyroglobulin value = 100%
Lactoferrin (human), sequence (P02788 20-710): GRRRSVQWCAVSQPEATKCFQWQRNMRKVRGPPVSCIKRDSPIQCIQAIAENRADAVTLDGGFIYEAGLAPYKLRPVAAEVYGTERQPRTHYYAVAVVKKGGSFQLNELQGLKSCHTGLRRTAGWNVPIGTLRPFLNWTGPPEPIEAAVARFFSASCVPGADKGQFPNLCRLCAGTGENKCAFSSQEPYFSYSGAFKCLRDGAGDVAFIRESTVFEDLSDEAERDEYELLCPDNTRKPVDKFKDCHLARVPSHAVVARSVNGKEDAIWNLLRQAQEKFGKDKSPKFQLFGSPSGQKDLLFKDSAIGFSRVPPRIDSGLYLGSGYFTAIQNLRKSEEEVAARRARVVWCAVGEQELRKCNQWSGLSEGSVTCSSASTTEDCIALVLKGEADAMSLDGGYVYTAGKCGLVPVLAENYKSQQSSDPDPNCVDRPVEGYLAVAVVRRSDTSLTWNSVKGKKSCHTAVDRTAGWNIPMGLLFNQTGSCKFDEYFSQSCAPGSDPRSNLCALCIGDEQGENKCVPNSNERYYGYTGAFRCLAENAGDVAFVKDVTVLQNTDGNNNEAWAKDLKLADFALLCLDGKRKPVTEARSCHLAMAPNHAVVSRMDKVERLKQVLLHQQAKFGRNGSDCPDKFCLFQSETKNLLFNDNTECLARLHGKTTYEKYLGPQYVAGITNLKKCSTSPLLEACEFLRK
Method: as §1, §2, §3

Mucin (bovine) = conditions: (8) Mucin (bovine), O-linked glycan including L-fucose; thyroglobulin value = 100%
Method: as §1, §2, §3

Mucin (pig) = conditions: (7) Mucin (pig), O-linked glycan including L-fucose; thyroglobulin value = 100%
Method: as §1, §2, §3

Transferrin (human) = Transferrin (human) (Homo sapiens, UniProt P02787); conditions: (4) Transferrin (human), N-linked glycan not including α1→6 L-fucose; thyroglobulin value = 100%
Transferrin (human), sequence (P02787 20-698): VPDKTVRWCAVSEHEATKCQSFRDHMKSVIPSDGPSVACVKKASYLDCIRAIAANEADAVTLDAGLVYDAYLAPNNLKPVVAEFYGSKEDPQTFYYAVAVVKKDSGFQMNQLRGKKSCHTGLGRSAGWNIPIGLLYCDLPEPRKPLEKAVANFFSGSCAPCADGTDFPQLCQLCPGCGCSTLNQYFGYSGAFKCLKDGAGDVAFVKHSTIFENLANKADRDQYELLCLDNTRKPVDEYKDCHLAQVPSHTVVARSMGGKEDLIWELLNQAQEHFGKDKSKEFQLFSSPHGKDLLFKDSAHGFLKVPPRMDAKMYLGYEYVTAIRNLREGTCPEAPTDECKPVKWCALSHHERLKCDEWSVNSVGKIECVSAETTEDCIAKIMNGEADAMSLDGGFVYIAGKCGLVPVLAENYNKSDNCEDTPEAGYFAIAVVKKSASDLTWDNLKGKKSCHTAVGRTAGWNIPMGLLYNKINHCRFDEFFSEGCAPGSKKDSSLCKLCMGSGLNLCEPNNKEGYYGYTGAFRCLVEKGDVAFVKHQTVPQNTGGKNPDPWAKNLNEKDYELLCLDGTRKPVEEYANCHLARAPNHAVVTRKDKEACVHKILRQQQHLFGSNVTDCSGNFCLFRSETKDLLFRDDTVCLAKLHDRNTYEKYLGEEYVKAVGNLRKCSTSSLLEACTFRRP
Method: as §1, §2, §3

[1] = target: Blood serum albumin (bovine) (Bos taurus, UniProt P02769); conditions: (0) Blood serum albumin (bovine), No sugar chain; thyroglobulin value = 100%
Blood serum albumin (bovine), sequence (P02769 25-607): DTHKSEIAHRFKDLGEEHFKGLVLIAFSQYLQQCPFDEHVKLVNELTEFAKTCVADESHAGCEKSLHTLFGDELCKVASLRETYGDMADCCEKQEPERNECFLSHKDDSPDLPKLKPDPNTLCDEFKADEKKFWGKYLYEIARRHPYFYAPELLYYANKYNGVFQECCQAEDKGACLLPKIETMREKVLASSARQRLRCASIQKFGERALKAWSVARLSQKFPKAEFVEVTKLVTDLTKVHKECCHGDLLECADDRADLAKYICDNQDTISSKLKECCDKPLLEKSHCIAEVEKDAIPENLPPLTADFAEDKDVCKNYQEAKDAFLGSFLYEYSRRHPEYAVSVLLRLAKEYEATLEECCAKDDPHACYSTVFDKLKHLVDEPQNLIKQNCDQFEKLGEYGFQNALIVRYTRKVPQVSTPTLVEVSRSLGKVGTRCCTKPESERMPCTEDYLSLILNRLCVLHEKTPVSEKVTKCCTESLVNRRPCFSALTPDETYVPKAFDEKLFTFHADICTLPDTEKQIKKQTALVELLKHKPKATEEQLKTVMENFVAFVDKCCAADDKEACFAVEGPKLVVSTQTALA
Method: as §1, §2, §3

[2] = system: α1-acidic glycoprotein (human); conditions: (5) α1-acidic glycoprotein (human), N-linked glycan having α1→3 L-fucose; thyroglobulin value = 100%
Method: as §1, §2, §3

Invertase (yeast) = target: T1, Invertase (yeast) (Saccharomyces cerevisiae, UniProt P00724); conditions: (6) Invertase (yeast), High mannose-type glycan; thyroglobulin value = 100%
T1 sequence (P00724 20-532): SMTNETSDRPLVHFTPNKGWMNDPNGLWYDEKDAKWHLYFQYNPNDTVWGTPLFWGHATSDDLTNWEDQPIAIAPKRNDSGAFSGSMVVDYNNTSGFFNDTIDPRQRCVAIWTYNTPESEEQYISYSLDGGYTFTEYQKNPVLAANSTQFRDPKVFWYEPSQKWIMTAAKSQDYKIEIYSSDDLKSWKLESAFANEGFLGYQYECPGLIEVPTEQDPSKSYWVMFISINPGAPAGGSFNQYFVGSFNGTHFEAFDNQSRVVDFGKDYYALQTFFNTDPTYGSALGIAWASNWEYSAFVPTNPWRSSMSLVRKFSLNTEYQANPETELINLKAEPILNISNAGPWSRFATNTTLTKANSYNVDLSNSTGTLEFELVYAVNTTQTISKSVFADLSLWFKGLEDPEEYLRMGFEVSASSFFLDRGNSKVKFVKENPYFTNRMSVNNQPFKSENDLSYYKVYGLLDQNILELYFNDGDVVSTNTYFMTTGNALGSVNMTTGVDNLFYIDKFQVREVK
Method: as §1, §2, §3

[3] = system: Immune-globulin G (human); conditions: (3) Immune-globulin G (human), N-linked glycan having α1→6 L-fucose; thyroglobulin value = 100%
Method: as §1, §2, §3

Row | Molecule | interaction strength (relative value) by ELISA (Thyroglobulin (pig)) | interaction strength (relative value) by ELISA (Lactoferrin (human)) | interaction strength (relative value) by ELISA (Mucin (bovine)) | interaction strength (relative value) by ELISA (Mucin (pig)) | interaction strength (relative value) by ELISA (Transferrin (human)) | interaction strength (relative value) by ELISA [1] | interaction strength (relative value) by ELISA [2] | interaction strength (relative value) by ELISA (Invertase (yeast)) | interaction strength (relative value) by ELISA [3]
1 | Aspergillus oryzae lectin [AOL, reference compound] | ⊚ (Relative values of 120 to 80) | ◯ (Relative values of 80 to 50) | ⊚ (Relative values of 120 to 80) | ⊚ (Relative values of 120 to 80) | X (Relative values of 10 or less) | X (Relative values of 10 or less) | Δ (Relative values of 50 to 10) | X (Relative values of 10 or less) | Δ (Relative values of 50 to 10)
2 | Pholiota terrestris lectin [PTL, novel L-fucose α1→6 specific lectin purified from the mushroom Pholiota terrestris] | ⊚ (Relative values of 120 to 80) | ⊚ (Relative values of 120 to 80) | X (Relative values of 10 or less) | X (Relative values of 10 or less) | X (Relative values of 10 or less) | X (Relative values of 10 or less) | X (Relative values of 10 or less) | X (Relative values of 10 or less) | ⊚ (Relative values of 120 to 80)
3 | Stropharia rugosoannulata lectin [SRL, novel L-fucose α1→6 specific lectin purified from the mushroom Stropharia rugosoannulata] | ⊚ (Relative values of 120 to 80) | ◯ (Relative values of 80 to 50) | X (Relative values of 10 or less) | X (Relative values of 10 or less) | X (Relative values of 10 or less) | X (Relative values of 10 or less) | X (Relative values of 10 or less) | X (Relative values of 10 or less) | ◯ (Relative values of 80 to 50)
4 | B1 | ⊚ (Relative values of 120 to 80) | ◯ (Relative values of 80 to 50) | ⊚ (Relative values of 120 to 80) | ⊚ (Relative values of 120 to 80) | X (Relative values of 10 or less) | X (Relative values of 10 or less) | Δ (Relative values of 50 to 10) | X (Relative values of 10 or less) | Δ (Relative values of 50 to 10)
5 | B2 | ⊚ (Relative values of 120 to 80) | ◯ (Relative values of 80 to 50) | X (Relative values of 10 or less) | X (Relative values of 10 or less) | X (Relative values of 10 or less) | X (Relative values of 10 or less) | X (Relative values of 10 or less) | X (Relative values of 10 or less) | ◯ (Relative values of 80 to 50)

Source: patent publication US8461305B2, “L-fucose α1→6 specific lectin” (J-Oil Mills, Inc., priority 2008, dated 2013)
